Laboratory results published in article PMC11169713 (Frontiers in Immunology, 2024).

Tests used:
[1] = biological target: biotinylated H5 A/Indonesia/5/2005 hemagglutinin (Influenza A virus A/Indonesia/5/2005 …, UniProt A5A5L7, strain, biotin (site not stated))
[2] = biological target: biotinylated H1 A/California/04/2009 hemagglutinin (Influenza A virus A/California/04/2009 …, UniProt C3W5S1, strain, biotin (site not stated))
[3] = biological target: biotinylated H7 A/Shanghai/02/2013 hemagglutinin (Influenza A virus A/Shanghai/02/2013 …, UniProt R4NN21, strain, biotin (site not stated))

Measured: binding result

B1: L5A7.1 (antibody, V domains shown)
VH: QVQLQQSGPGLVKPSQTLSLTCVISGDSVSSNSAAWDWIRQSPSRGLEWLGRTYYRSKWYSDYAVSVKSRITITPDTSKNQFSLHLNSVTPEDTAVYYCARAGVRIFGVIVDSLDYWGQGTLVTVSS
VL: AIQLTQSPSSLSASVGDRVTITCRASQALNSYLAWYQQKPGKAPKLLIFAASTLQSGVPSRFSGSGSGTDFTLTISSLQPEDFATYYCQLSKTFGPGTRVDIE
binds: all assays above

B2: L5A7.3 (antibody, V domains shown)
VH: QVQLQQSGPGLVKPSQTLSLTCVISGDSVSSNTAAWDWIRQSPSRGLEWLGRTYYRSRWYSDYADSVKSRITITPDTSKNQFSLHLNSVTPEDTAVYYCARAGIRIFGIIVDSLDYWGQGTLVTVSS
VL: AIQLTQSPSSLSASVGDRVTITCRASQGANSYLAWYQQKPGKAPKLLIYAASTLQSGVPSRFSGSGSGTDFSLTISSLQPEDFATYYCQESKTFGPGTRVDIE
binds: all assays above

B3: L5A7.4 (antibody, V domains shown)
VH: QVQLQQSGPRLVKPSQTLSLTCAISGDSVSSTSAAWDWIRQSSSRGLEWLGRTYYRSRWYHDYEESVKSRITINADTSKNQFSLQLASVTPEDTAVYYCARAGIRVFGIIVDSLDYWGQGSLVTVSS
VL: AIQLTQSPSSLSASVGDRVTITCRASQGFNSYLAWYQQKPGKAPELLIYAASTLQSGVPSRFSGSGSGTDFTLTISSLQPEDFATYYCQQSKTFGPGTKVDIK
binds: all assays above

B4: L5A7.2 (antibody, V domains shown)
VH: QVQLQQSGPGLVKPSQTLSLTCVISGDSVSSNSAAWDWIRQTPSRGLEWLGRTYYRSKWYSDYAVSVKSRITITPDTSKNQFSLRLNSVTPEDTAVYYCARAGVRVFGVIVDSLDYWGQGTLVTVSS
VL: AIQLTQSPSSLSASVGDRVTITCRASQGFSSYLAWYQQKPGKAPQLLIYAASTLQSGVPSRFSGSGSGTDFTLTISSLQPEDFATYYCQQSKTFGPGTRVDIE
binds: all assays above
